Measurements reported in PMC3794784, “The Role of Initial Oligomers in Amyloid Fibril Formation by Human Stefin B” (International Journal of Molecular Sciences, 2013).
Values joined by “and” are separate entries in the source; they are usually repeats but may differ in a detail not shown here. Equal values may be shown once.

What was measured:
[1] = biological target: the molecule itself; assay: native MS; ESI-Q-TOF MS of SEC fractions, stefin B in 0.02 M ammonium acetate, pH 7.5, injected directly, positive mode
[2] = biological target: the molecule itself; assay: SEC; pH dependent transitions started from separated tetramers or higher-order oligomers; 34 μM protein, 2 h at 23 °C at pH 4.8, 5.8 or 7.0, 0.15 M NaCl, 9% (v/v) TFE
[3] = biological target: the molecule itself; assay: SEC; oligomers isolated on Superdex 75 and then loaded on Superdex 200; room temperature; 0.01 M phosphate buffer, pH 7.0, 0.15 M NaCl (0.02 M ammonium acetate, pH 7.5 for ESI MS samples)
[4] = biological target: the molecule itself; assay: SEC; time course started from SEC-purified monomers, dimers, tetramers or higher-order oligomers; pH 5.8 (0.1 M phosphate buffer, 0.15 M NaCl, 9% (v/v) TFE, 25 °C); an aliquot every hour on Superdex 75; tetramer to dimers
[5] = biological target: the molecule itself; assay: SEC; concentration dependence (34, 75, 100 μM), started from the oligomer mixture; 0.02 M ammonium acetate, pH 7.5, 0.15 M NaCl, 9% (v/v) TFE, 50 °C, 300 rpm, 5 h; aliquots on Superdex 75; dimer to monomers, Kd = [M]^2/[D]
[6] = biological target: the molecule itself; assay: SEC; concentration dependence (4, 9, 34, 75, 100 μM), started from the oligomer mixture; 0.1 M phosphate buffer, pH 5.8, 0.15 M NaCl, 9% (v/v) TFE, 25 °C, 300 rpm, 5 h; aliquots on Superdex 75; tetramer to dimers, Kd = [D]^2/[T]

B1: Recombinant human stefin B (S3E31) (natural protein, UniProt P04080 1-98, looked up)
chain: MMSGAPSATQPATAETQHIADQVRSQLEEKENKKFPVFKAVSFKSQVVAGTNYFIKVHVGDEDFVHLRVFQSLPHENKPLTLSNYQTNKAKHDELTYF
notes: human stefin B (product of the cystatin B gene), a globular protein of 98 amino acid residues; variant S3E31: Ser at position 3 instead of Cys, Glu at position 31; also called cystatin B
B1 was tested, and the “stoichiometry N” value [1] was 10 and 8, the “stoichiometry N” value [2] was 6 and 3 and the “stoichiometry N” value [3] was 2 and 4. For the same protein, the koff [4] was 0.0001 s⁻¹, the Ka [5] was 612000 M⁻¹ and the Kd [5] was 1.63 ± 0.31 µM. The Ka [6] was 3080 M⁻¹ and the Kd [6] was 325 ± 180 µM.
